For one experiment, the target named is T1, mouse Axl-Fc (mouse, UniProt Q00993 20-443, limits assumed).
T1 construct: also called m-Axl; not shown: Fc part
T1 sequence (looked up): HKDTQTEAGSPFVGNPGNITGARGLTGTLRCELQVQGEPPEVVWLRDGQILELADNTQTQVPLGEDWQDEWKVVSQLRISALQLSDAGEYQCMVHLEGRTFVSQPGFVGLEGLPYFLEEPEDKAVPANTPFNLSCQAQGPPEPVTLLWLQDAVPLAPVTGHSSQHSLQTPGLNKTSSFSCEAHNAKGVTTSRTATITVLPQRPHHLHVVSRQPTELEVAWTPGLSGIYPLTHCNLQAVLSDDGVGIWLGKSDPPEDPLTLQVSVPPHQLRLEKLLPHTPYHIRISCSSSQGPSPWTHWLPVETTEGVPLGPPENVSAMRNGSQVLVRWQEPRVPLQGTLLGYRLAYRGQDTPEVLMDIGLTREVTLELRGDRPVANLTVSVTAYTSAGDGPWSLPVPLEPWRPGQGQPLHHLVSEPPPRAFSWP
The experiment is described as follows: ELISA, plates with mouse Axl-Fc, HRP-conjugated anti-mouse IgG, OD 450 nm. As for the experimental part:
(§1) FIG. 1: ELISA experiments to investigate the affinity and the specificity of mouse monoclonal antibodies against hAxl.
(§2) For cross reaction assay, coated plates were incubated with human Axl-Fc (h-Axl), mouse Axl-Fc (m-Axl) or human Mer-Fc (h-Mer), Tyro-3-Fc (h-Tyro-3) for 1 hour at 37° C. and washed four times in PBST. Plates were incubated with anti-Axl mAbs (2 hours at 37° C.) and washed four times in PBST. Plates were incubated with HRP-conjugated anti-mouse IgG (Sigma) at a 1:2000 dilution in PBST, 1% BSA (1 hour at 37° C.). Finally, an ortho-phenylenediamine solution (Sigma) was added for 30 min at room temperature in the dark and the absorbance was measured at 450 nm.

The target of experiment [1] is human Axl extracellular domain fused to human Fc domain (hAxl-hFc protein; R&D system) (human) (UniProt P30530). Nature of the experiment: SPR (BIAcore), hAxl-hFc amine-coupled to a CM5 chip; 20G7-D9 (666 nM by the text) injected first, lower panel. On the technique in general: In SPR one partner is held on a chip, and binding of the other changes the refractive index at the surface.

Another experiment concerns the target T2, Tyro-3-Fc (h-Tyro-3) (human, UniProt Q06418 41-428, limits assumed).
T2 construct: The species is read from the label 'h-Tyro-3'; also called human Tyro-3-Fc; not shown: Fc part
T2 sequence (looked up): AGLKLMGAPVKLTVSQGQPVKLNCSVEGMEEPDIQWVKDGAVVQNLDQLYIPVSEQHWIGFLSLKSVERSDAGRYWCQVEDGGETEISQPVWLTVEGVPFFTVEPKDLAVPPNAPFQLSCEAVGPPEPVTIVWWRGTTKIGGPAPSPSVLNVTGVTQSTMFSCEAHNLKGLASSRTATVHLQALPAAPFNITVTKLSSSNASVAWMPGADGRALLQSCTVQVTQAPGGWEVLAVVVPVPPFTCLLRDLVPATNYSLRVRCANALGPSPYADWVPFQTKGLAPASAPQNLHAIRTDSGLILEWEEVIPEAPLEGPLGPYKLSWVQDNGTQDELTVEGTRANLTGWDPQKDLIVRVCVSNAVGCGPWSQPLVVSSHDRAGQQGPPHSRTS
Nature of the experiment: ELISA, plates with human Tyro-3-Fc, HRP-conjugated anti-mouse IgG, OD 450 nm. Here is the method:
as §1, §2

The target of experiment [2] is T3, human Axl on the cell surface (A549 cells; pancreatic cancer cell lines) (human, UniProt P30530 26-894).
T3 construct: whole, on cells; also called cell surface Axl; Axl receptor
T3 sequence (looked up): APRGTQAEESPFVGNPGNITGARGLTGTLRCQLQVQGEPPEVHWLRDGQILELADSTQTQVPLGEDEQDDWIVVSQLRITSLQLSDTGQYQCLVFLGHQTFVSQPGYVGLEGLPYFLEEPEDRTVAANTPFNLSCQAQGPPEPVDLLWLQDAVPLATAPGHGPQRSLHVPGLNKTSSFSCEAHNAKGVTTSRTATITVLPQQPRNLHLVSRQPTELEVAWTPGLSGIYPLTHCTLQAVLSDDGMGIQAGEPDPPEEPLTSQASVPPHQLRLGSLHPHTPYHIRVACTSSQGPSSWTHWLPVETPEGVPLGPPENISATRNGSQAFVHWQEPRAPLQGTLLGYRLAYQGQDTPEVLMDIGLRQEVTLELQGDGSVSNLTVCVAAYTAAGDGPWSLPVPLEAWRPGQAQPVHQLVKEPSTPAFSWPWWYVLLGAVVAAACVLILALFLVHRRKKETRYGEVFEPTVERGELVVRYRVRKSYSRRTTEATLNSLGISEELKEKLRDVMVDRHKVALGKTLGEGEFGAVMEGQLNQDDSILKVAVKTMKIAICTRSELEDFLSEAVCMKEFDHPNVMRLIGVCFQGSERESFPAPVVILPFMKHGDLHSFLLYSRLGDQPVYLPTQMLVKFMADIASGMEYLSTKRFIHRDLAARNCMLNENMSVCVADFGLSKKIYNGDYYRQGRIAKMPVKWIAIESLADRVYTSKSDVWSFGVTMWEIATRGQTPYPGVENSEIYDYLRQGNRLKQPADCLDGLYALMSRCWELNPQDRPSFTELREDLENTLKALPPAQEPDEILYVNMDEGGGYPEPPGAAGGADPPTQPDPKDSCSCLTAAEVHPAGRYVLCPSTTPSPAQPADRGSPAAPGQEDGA
The experiment is described as follows: flow cytometry on A549 cells, fluorescein-conjugated anti-mouse IgG. As for the experimental part:
FIG. 2: Flow cytometry analysis of cell surface Axl in A549.
The ability of mouse anti-Axl monoclonal antibodies of the invention to specifically recognize Axl expressing cells was determined by FACS using standard techniques. Briefly, A549 cells (ATCC number: CCL-185) were harvested, stained with purified mouse anti-Axl monoclonal antibodies of the invention at 4° C. for 1 hour, washed three times in PBS-BSA 0.1%, and then stained with fluorescein-conjugated anti-mouse IgG (1:50) (Sigma) at 4° C. in the dark for 45 min. Samples were analyzed on EPICS flow cytometer (Beckman-Coulter, Fullerton, Calif.).
On the technique in general: In flow cytometry, cells or beads pass a laser one at a time.

Experiment [3] deals with human Axl extracellular domain fused to human Fc domain (hAxl-hFc protein; R&D system) (human) (UniProt P30530). Nature of the experiment: SPR (BIAcore 3000), hAxl-hFc amine-coupled on CM5 chip, mAb injected at 2 to 133 nM, 25 °C, 1:1 Langmuir model; hAxl-hFc on the CM5 chip, mAb injected at 2 to 133 nM, 25 C.
Another experiment deals with T4, human Mer-Fc (human, UniProt Q12866 26-499, limits assumed).
T4 construct: also called h-Mer; not shown: Fc part
T4 sequence (looked up): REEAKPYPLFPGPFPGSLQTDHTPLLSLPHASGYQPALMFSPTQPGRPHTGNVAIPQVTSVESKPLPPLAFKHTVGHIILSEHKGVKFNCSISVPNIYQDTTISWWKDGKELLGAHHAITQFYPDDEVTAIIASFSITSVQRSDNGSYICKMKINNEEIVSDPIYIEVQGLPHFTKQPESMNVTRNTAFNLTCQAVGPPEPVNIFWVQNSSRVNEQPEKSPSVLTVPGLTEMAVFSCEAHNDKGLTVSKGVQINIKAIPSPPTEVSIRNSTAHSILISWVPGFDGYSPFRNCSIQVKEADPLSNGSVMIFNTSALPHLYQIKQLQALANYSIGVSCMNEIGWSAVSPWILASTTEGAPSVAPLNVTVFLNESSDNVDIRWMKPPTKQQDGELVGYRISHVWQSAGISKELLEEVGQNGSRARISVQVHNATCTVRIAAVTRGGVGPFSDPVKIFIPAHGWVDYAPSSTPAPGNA
Nature of the experiment: ELISA, plates with human Mer-Fc, HRP-conjugated anti-mouse IgG, OD 450 nm. Here is the method:
as §1, §2
For orientation: An ELISA detects its analyte on a solid surface through an enzyme-linked reagent.

Experiment [4] deals with human Axl extracellular domain fused to human Fc domain (hAxl-hFc protein; R&D system) (human) (UniProt P30530). The experiment is described as follows: SPR (BIAcore), hAxl-hFc amine-coupled to a CM5 chip; 20G7-D9 (666 nM by the text) injected second, without removing Gas6, upper panel.

One may read the Kd as the concentration at which binding is half-saturated. Low values mean higher affinity, high ones lower affinity.

B1: mouse anti-Axl monoclonal antibody 20G7-D9 (antibody, V domains shown)
VH: QVQLQQSGAELMKPGASVKMSCKAAGYTFSSYWIEWVRQRPGHGLEWIGEIFPGSDSTNYNEKFNDRATFTADTSSNTAYMQLSSLTSEDSAVYYCARPLYYGSSAWFAYWGQGTLVTVSA
VL: DIQMTQSPASLSASVGETVTITCRASENIYSYLTWYQQKQRKSPQLLVYNAKTLAEGVPSRFSGSGSGTQFSLKINSLQPEDFGTYYCQHHYATPWTFGGGTKVEIK
notes: the irrelevant control Px is called 'murine IgG1 isotype mAb'; also called mAb 20G7-D9; mAb 20G7D9
As for B1, the binding result is recorded as “no binding” with mouse Axl-Fc, “no binding” in the experiment with Tyro-3-Fc (h-Tyro-3), “binds” in experiment [2] and “no binding” with human Mer-Fc. Further, the response (RU) in experiment [1] was 2530 RU; in experiment [4], 2280 RU. In addition, the Kd in experiment [3] amounted to 53 nM.

The record behind these values is patent publication US20140302041A1 (ORIBASE PHARMA, published 2014).
